T1: mouse CD73 on mouse mammary carcinoma 4T1 cells (mouse, UniProt Q61503 29-551)
T1 construct: whole, on cells
T1 sequence (looked up): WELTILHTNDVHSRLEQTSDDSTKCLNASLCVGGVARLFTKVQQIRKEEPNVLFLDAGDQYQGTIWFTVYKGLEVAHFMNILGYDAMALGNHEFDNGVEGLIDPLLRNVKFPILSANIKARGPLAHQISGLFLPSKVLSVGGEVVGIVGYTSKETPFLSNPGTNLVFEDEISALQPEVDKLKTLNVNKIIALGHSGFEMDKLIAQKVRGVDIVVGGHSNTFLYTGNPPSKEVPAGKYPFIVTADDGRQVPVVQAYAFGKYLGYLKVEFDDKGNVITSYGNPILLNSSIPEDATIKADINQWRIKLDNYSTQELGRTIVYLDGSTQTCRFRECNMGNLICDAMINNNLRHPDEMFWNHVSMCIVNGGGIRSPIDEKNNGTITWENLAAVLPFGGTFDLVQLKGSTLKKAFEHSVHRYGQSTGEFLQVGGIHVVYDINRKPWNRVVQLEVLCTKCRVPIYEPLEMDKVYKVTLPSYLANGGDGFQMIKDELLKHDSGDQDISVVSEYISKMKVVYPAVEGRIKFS

T2: human CD73 on CD73-expressing human tumor cells (MDA-MB-231, NCI-H292) (human, UniProt P21589 27-549)
T2 construct: whole, on cells; The cell line of each result is named under assay or readout; also called cell surface CD73; surface CD73
T2 sequence (looked up): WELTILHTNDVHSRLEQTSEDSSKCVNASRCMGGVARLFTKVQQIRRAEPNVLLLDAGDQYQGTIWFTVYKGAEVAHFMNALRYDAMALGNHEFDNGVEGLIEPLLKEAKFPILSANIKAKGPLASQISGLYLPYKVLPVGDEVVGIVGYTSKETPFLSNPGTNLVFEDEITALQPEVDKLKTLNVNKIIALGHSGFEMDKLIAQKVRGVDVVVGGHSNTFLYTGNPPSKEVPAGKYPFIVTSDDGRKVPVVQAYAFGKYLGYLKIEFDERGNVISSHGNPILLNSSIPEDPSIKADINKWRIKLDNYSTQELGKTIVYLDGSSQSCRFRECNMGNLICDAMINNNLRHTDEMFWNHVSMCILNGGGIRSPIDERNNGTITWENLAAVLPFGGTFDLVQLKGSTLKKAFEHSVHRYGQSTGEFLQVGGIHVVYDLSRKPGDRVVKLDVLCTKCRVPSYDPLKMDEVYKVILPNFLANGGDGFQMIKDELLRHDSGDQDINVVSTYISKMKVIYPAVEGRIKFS


Columns and labels:
[1] = biological target: T1, mouse CD73 on mouse mammary carcinoma …; experiment: flow cytometry on 4T1 cells, FITC anti-human IgG (FIG. 24A)
Procedure: Binding of anti-CD73 antibodies was assessed by incubating the 4T1 or LLC-MK2 cells (1E5 cells/test) with the serially diluted antibodies in FACS buffer (PBS with 2% FBS) at 4° C. for 30 minutes. The cells were washed with FACS buffer and the binding was detected with FITC-labeled goat anti-human IgG (H+L) antibodies at 4° C. for another 30 minutes. The binding of antibodies to cell surface was measured by the mean fluorescent intensity (MFI) of staining. Flow cytometric analyses were performed using the Cytomics FC500 or CytoFLEX flow cytometry (Beckman Coulter Inc.).
FIGS. 24A and 24B illustrate cross-binding of N1 and N4 top variants to mouse and monkey CD73-expressing cells. Anti-CD73 antibodies were tested for the binding to CD73-expressing mouse mammary carcinoma 4T1 cells (FIG. 24A) and monkey kidney epithelial LLC-MK2 cells (FIG. 24B) by flow cytometry. HLX01 was used as the negative control. […] N1 and N4 top variants cannot cross-bind to mouse CD73.

[2] = biological target: T2, human CD73 on CD73-expressing human …; experiment: flow cytometry on MDA-MB-231 cells (FIG. 16B)
Procedure: Whole cell binding ability of anti-CD73 antibodies were tested by incubating the MDA-MB-231 or NCI-H292 cells with the serial-diluted antibodies in FACS buffer (PBS with 2% FBS) at 4° C. for 30 minutes. Cells were washed with FACS buffer and the binding was detected with FITC-labeled goat anti-human IgG (H+L) antibodies (or PE-labeled goat anti-human IgG Fcγ) at 4° C. for another 30 minutes. The binding of antibodies to cell surface was measured by the mean fluorescent intensity (MFI) of staining. Flow cytometric analyses were performed using the Cytomics FC500 or CytoFLEX flow cytometry (Beckman Coulter Inc.). FIGS. 2B and 2C show selected anti-CD73 antibodies binding to CD73-expressing human tumor cells MDA-MB-231 (human breast adenocarcinoma) cells (FIG. 2B), and NCI-H292 (human mucoepidermoid pulmonary carcinoma) cells (FIG. 2C).
FIGS. 16A-16C show CD73 binding ability of N1 and N4 top variants. Anti-CD73 antibodies were tested the binding to recombinant human CD73 proteins by ELISA (FIG. 16A) and CD73-expressing human tumor cells, MDA-MB-231 (FIG. 16B) and NCI-H292 (FIG. 16C), by flow cytometry. Anti-CD73 ref-1 and anti-CD73 ref-2 antibodies were used as the positive controls, while HLX01 (anti-CD20) was used as the negative control. […] The binding of N1#9-PH to CD73-expressing NCI-H292 cells is slightly better than that of N4#6-3-P and N4#6-4-P.

Binder	binding result [1]	binding result [2]
N4#6-3-P (antibody, human IgG2, lambda, V domains shown, Full-length human IgG2 antibody; also called antibody variant N4#6-3-P; N4 top variant) VH: QVQLVQSGAEVKKSGSSVKVSCKASGGTFSSYAISWVRQAPGQGLEWMGGIIPIFGTANYAQKFQGRVTITADESTSIAYMELSSLRSEDTAVYYCASDGAVAAYDAFLIWGQGTMVTVSS VL: QAVLTQPSSVSGAPGQRVTISCTGTSSNIGLGYDIHWYQQLPGTAPKLLMYRFDRRPSGVPDRFSGSKSGTSASLTITGLQVEDEADYYCQSYDSGQRGWVFGGGTKLTVLG	no binding	binds
N4#6-4-P (antibody, human IgG2, lambda, V domains shown, Full-length human IgG2 antibody; also called antibody variant N4#6-4-P; N4 top variant) VH: QVQLVQSGAEVKKSGSSVKVSCKASGGTFSSYAISWVRQAPGQGLEWMGMIIPIFGTANYAQKFQGRVTITADESTSIAYMELSSLRSEDTAVYYCASDGAVAAYDAFLIWGQGTMVTVSS VL: QAVLTQPSSVSGAPGQRVTISCTGTSSNIGAGFDIHWYQQLPGTAPKLLMYRFSRRPSGVPDRFSGSKSGTSASLTITGLQVEDEADYYCQSYDSGQRGWVFGGGTKLTVLG	no binding	binds
N1#9-PH (antibody, human IgG2, lambda, V domains shown, Full-length human IgG2 antibody; also called antibody variant N1#9-PH; N1 top variant) VH: EVQLVESGGGLVQPGRSLRLSCAASGFTFDDYAMHWVRLAPGKGLEWVSGISWNSGSIGYADSVRGRFTISRDNAKNSLYLQMNSLRAEDTALYYCAKDMGWSLLKTNYYGMDVWGQGTTVTVSS VL: not shown	no binding	binds
